Test results published in the supplement of paper PMC10126150.
± gives the standard deviation of the averaged measurements.

system: ATP; assay: switch fluorescence ratio, 500 uM ATP over buffer (Cy3 cluster intensity, sum of 5 cycles each) (fold (ratio)); higher = stronger signal-on switching upon ATP binding; sequences stand for … in TCGTCGGCAGCGTCAGATGTGTATAAGAGACAGTTTTTTTTTTTTTTTTTTTTTTTTT…TC; settings: aptamer strand: ATP DNA aptamer (quencher-CACCTGGGGGAGTATTGCGGAGGAAGG + anchor), 100 nM annealed; ATP concentration: 500 uM
Method in brief: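 Exposure to 500 uM ATP lasted 15 min at 22 °C before imaging, and a selection-buffer image was taken beforehand, for Cy3-labelled switching-strand clusters on a modified Illumina MiSeq flow-cell annealed to 100 nM quencher-labelled ATP aptamer. Five buffer/ATP cycles were run with NaOH stripping and re-annealing between them. The fluorescence ratio per cluster is summed target-cycle over summed buffer-cycle Cy3 intensity, averaged per switch-domain sequence. Clusters outside 100-1000 RFU were excluded.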

Going from ATGCAGGTGT to GTGTTTTACG, the switch fluorescence ratio falls from 1.23 ± 0.014 to 1.01 ± 0.021.

GGCCGGGAAT and CTAATCAGCT are within error of each other in switch fluorescence ratio: 0.9941 ± 0.0028 for the first, 0.977 ± 0.019 for the second.

First: TTTTTGCTAT
Second: ATTGTATTTA
The switch fluorescence ratio of the first is higher: 1.06 ± 0.062 for the first, 0.9842 ± 0.0079 for the second.

GCTTGATTAG and GATTCACTAA are within error of each other in switch fluorescence ratio: 0.9963 ± 0.0018 for the first, 0.989 ± 0.054 for the second.

GGACTGAAGT and AGGGCTTGTG are within error of each other in switch fluorescence ratio: 1.02 ± 0.038 for the first, 0.987 ± 0.012 for the second.

TATAGGGAAA and GGGTGTGAGG are within error of each other in switch fluorescence ratio: 1.09 ± 0.11 for the first, 0.983 ± 0.025 for the second.

TGGGGCGCCG and GATTGTTTTT are within error of each other in switch fluorescence ratio: 1.13 ± 0.18 for the first, 0.997 ± 0.044 for the second.

ACTACATATG and TTTTTTCGGG are within error of each other in switch fluorescence ratio: 1.03 ± 0.016 for the first, 0.993 ± 0.023 for the second.

Going from GGACTCGCTC to AGTGTACCCA, the switch fluorescence ratio rises from 1.02 ± 0.018 to 1.077 ± 0.01.

GATCCTTTAT and ATCGCATTG are within error of each other in switch fluorescence ratio: 0.979 ± 0.02 for the first, 1.24 ± 0.34 for the second.

TTTTAGGCAC and GCATGATGGG are within error of each other in switch fluorescence ratio: 1.03 ± 0.018 for the first, 0.986 ± 0.043 for the second.

TCATCAGTGA and TCATAAGTGA are within error of each other in switch fluorescence ratio: 0.998 ± 0.028 for the first, 0.9848 ± 0.0083 for the second.

AGTAGATTGG and AGGGGAAGAG are within error of each other in switch fluorescence ratio: 0.995 ± 0.028 for the first, 0.994 ± 0.07 for the second.

CAAAATTCCG and AACAGGGGCT are within error of each other in switch fluorescence ratio: 1.08 ± 0.017 for the first, 1.09 ± 0.12 for the second.

TGTGGTATAT and TAGACGGGGA are within error of each other in switch fluorescence ratio: 0.993 ± 0.024 for the first, 0.984 ± 0.046 for the second.

TATTACGAGT and GAGGCTGGTA are within error of each other in switch fluorescence ratio: 1.02 ± 0.013 for the first, 0.98 ± 0.028 for the second.

TAGGGATTCT and CGTATAGTAG are within error of each other in switch fluorescence ratio: 0.995 ± 0.026 for the first, 0.958 ± 0.02 for the second.

TATGTTGTCG and TTCATTTTGC are within error of each other in switch fluorescence ratio: 1.08 ± 0.12 for the first, 1.02 ± 0.015 for the second.

AAAAAGCTTT and CCTAGGGGGA are within error of each other in switch fluorescence ratio: 1.026 ± 0.0047 for the first, 1.05 ± 0.021 for the second.

CCACATTGGA and GTTTGTATGG are within error of each other in switch fluorescence ratio: 1.001 ± 0.01 for the first, 1.01 ± 0.018 for the second.

GGAGGTGG and GGGAATTTGC are within error of each other in switch fluorescence ratio: 0.942 ± 0.026 for the first, 1 ± 0.036 for the second.

TATTTTTTAG and GCATAAGGGC are within error of each other in switch fluorescence ratio: 0.96 ± 0.013 for the first, 0.959 ± 0.033 for the second.

AATGCCTGCG and TAGGAAATGT are within error of each other in switch fluorescence ratio: 1.02 ± 0.034 for the first, 1.07 ± 0.087 for the second.

ATGAATACAA and ATACTTATTT are within error of each other in switch fluorescence ratio: 1.01 ± 0.014 for the first, 1.03 ± 0.018 for the second.

First: GTTATGAGTT
Second: TCCATGGGTG
The switch fluorescence ratio of the first is lower: 0.975 ± 0.029 for the first, 1.52 ± 0.033 for the second.

CTTGTGACAC and TCGAAAAATT are within error of each other in switch fluorescence ratio: 1.02 ± 0.033 for the first, 0.975 ± 0.048 for the second.

AAATGAAGGG and GGGGTCATTT are within error of each other in switch fluorescence ratio: 1 ± 0.058 for the first, 0.979 ± 0.027 for the second.

GACGACATGT and GGGTTGTCCG are within error of each other in switch fluorescence ratio: 1.09 ± 0.035 for the first, 1.05 ± 0.07 for the second.

GGAGGGGCGA and AGTAGGAAGG are within error of each other in switch fluorescence ratio: 1.1 ± 0.14 for the first, 1.01 ± 0.019 for the second.

First: GGCAATCGAA
Second: TAGAAGGTTG
The switch fluorescence ratio of the first is higher: 1.1145 ± 0.00045 for the first, 0.972 ± 0.018 for the second.

First: TTGTGGAAAA
Second: TCTTGGTCGG
The switch fluorescence ratio of the first is lower: 0.953 ± 0.03 for the first, 1.026 ± 0.0041 for the second.

AGGGTTAGGA and TGTTTGGTGT are within error of each other in switch fluorescence ratio: 1.02 ± 0.033 for the first, 0.9948 ± 0.005 for the second.

GATGGAAAGG and GGGCTTATGA are within error of each other in switch fluorescence ratio: 0.998 ± 0.029 for the first, 1.018 ± 0.0044 for the second.

Compared with GGGGGAATCA, ATTTTTACTC is higher in switch fluorescence ratio: 0.9748 ± 0.0039 for the first, 1.01 ± 0.029 for the second.

AGGTTGCAGT and AAAGTATTAA are the same in switch fluorescence ratio: 1.01 ± 0.077 for the first, 1.014 ± 0.0026 for the second.

TCTACGGGGT and CATGAATATG are within error of each other in switch fluorescence ratio: 1.46 ± 0.55 for the first, 1.01 ± 0.03 for the second.

TTTAATCGTT and CGAGTTTTTG are within error of each other in switch fluorescence ratio: 0.999 ± 0.014 for the first, 0.979 ± 0.014 for the second.

TGTAGGGGTT and TTTTCGTATG are the same in switch fluorescence ratio: 1 ± 0.044 for the first, 1 ± 0.053 for the second.

TGTTTGTTAG and AAGGCAATTT are within error of each other in switch fluorescence ratio: 1.04 ± 0.048 for the first, 1.02 ± 0.048 for the second.

GAATTGGGAG and ATTTAGGTTT are within error of each other in switch fluorescence ratio: 0.998 ± 0.02 for the first, 1.01 ± 0.012 for the second.

Compared with AGGGAGTTTG, AGCGATGCTT is higher in switch fluorescence ratio: 0.983 ± 0.021 for the first, 1.133 ± 0.011 for the second.

TTGGTTGCAA and AGTTATACGG are within error of each other in switch fluorescence ratio: 0.983 ± 0.029 for the first, 0.995 ± 0.032 for the second.

GATTTTGAGC and TTTTTGGTGA are within error of each other in switch fluorescence ratio: 0.9986 ± 0.0048 for the first, 0.984 ± 0.013 for the second.

Compared with GAGTATTTTG, CCGTGTATGT is higher in switch fluorescence ratio: 0.953 ± 0.026 for the first, 1.045 ± 0.0062 for the second.

GGGAGATGAC and TTTAATAAGG are within error of each other in switch fluorescence ratio: 1.01 ± 0.022 for the first, 0.9962 ± 0.0027 for the second.

TTGAGAGGGT and GCATTAGGTA are within error of each other in switch fluorescence ratio: 0.9859 ± 0.0089 for the first, 0.984 ± 0.024 for the second.

ATGATGGATT and AGAATCGACT are within error of each other in switch fluorescence ratio: 1.008 ± 0.0031 for the first, 0.997 ± 0.014 for the second.

Compared with GGGGAAATTA, GCTTGTTTGG is lower in switch fluorescence ratio: 1.02 ± 0.012 for the first, 0.961 ± 0.013 for the second.

AGGTATGGTC and CGGGCTTATT are within error of each other in switch fluorescence ratio: 0.995 ± 0.031 for the first, 0.988 ± 0.02 for the second.

TTAACCGATA and AGCTTCTTAT are within error of each other in switch fluorescence ratio: 1.04 ± 0.031 for the first, 1.03 ± 0.028 for the second.
